Laboratory results taken from the supplement of paper PMC9170038.

Assays:
[1] = tested on: MS2 coat protein; assay: apparent KD of MS2 coat protein; designed switch direction (-1 OFF switch, 1 ON switch): 1; higher = weaker reporter binding; settings: Eterna round: R98
Procedure: (§1)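 RNA-MaP: designed FMN/MS2 RNA switches (84 nt design region) are transcribed on-chip within common flanks and titrated with SNAP-549-labelled MS2 coat protein (about 1-3000 nM) in 100 mM Tris pH 7.5, 80 mM KCl, 4 mM MgCl2, without or with 200 uM FMN. Median apparent KD per design; activation ratio = KD,OFF / KD,ON.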

[2] = tested on: MS2 coat protein; assay: apparent KD of MS2 coat protein; designed switch direction (-1 OFF switch, 1 ON switch): -1; higher = weaker reporter binding; settings: Eterna round: R98
Procedure: as §1

Sequence | apparent KD of MS2 coat protein ([1]; input ligand: FMN 200 uM) [nM] | apparent KD of MS2 coat protein ([1]; input ligand: none) [nM] | apparent KD of MS2 coat protein ([2]; input ligand: FMN 200 uM) [nM] | apparent KD of MS2 coat protein ([2]; input ligand: none) [nM]
GUAGCAUACCGAGGAUAUUCAUAUAAUAAAUAAACAUGAGGAUCACCCAUGUGGCGAAAGCCUAGGGAGAAGGCGGAAUGCUAU [salish99_SSNG2_r2_110] | 24.2 | 171 | – | –
GUCGAAUUCUUAGGAUAUCGAGUGGAUAACACUCGAGAAGGAAGAUAUACCUGAGGAUCACCCAGGUUAAACUGAACGACAAUA [Same State NG1 - A3C, U17G Submission 7D] | 17.5 | 18.5 | – | –
UAUAUAAUAAGAGCUGGAACUCAAACAUGAGGAUCACCCAUGUAGGAUAUCAGCACGAUAAGUGCUGAGAAGGACAACCAGCUC [Denovo 75] | – | – | 21.2 | 17.6
UAUAUAAUUAAGAGCUGGACCAAAACAUGAGGAUCACCCAUGUAGGAUAUCAGCACGAUAAGUGCUGAGAAGGACUACCAGCUC [Denovo 83] | – | – | 22.4 | 18.5
UCACAGUGUCGUUAUCCGUAGCGAACAUGAGGAUCACCCAUGUAGGAUAUGUUAUUAAACUAAUAACAGAAGGACGUUAGUCGG [Ex NG3 #21] | – | – | 94.3 | 36
UCACUCACGUCAGGAUAUGGAUCGGAAAACGAUCCAGAAGGGACCUGCAAACCUGAGGAUCACCCUGGUUCCAAUAACGAGUGA [SameSame 10 - Jieux - Same State NG 1] | 133 | 222 | – | –
UCAUACAUGAGGAUCUCCCAUGACAUGAGGAUCACCCAUGUGCAGGAUAUACGUGAUAUAAUAUAGUAGAAGGGCAGACUAUAU [LRO008_Exclusion NG 3] | – | – | 192 | 157
UGACGGCACACAGGAUAUAGUGCACAAAGUGUACUAGAAGGGUGAGCACUCGUCCGGGCACAUGAGGAUCACCCAUGUCGUCGA [Onusar] | 1040 | 133 | – | –
UGCACAUGAGGAUCACCCAUGUAUUGUUCGGUUUAUAGUAGUGAGGAUAUGCAAAGUAUAAGGAAGCAGAAGGCACAGGAUUCA [JR_SSNG3_Sub045] | 19.5 | 26.3 | – | –
UGGACCAAUACAGGAUAUGGUGACGCACAUGAGGAUCACCCAUGUCCGCAGCGUGCUCAGCACGCCCAGAAGGGUAUUGAUUCA [Tereriesti] | 74.5 | 671 | – | –
UGUUGUUACGCAGGAUAUUGCCAACAGGCAGUAGGAUAUCCGAAAGGAGAAGGACCGCCAACAGGCGAGAAGGGCGGGUUAACA [pwkr exNG2 2xF7 2FMN.10 scored 83] | – | – | 35 | 57.9
UUCUGUGCCCAAAGUUUAAGCACAUGAGGAUCACCCAUGUGAAAGGAUAUGUGGCGUGUAACGUUAUAGAAGGUUCACAAUAAA [Edorcetila] | – | – | 74.9 | 33.1
UUGACGUCGGAUACAUGAGGAUCACCCAUGUGCCCGCGGGCACAGGAUAUCGAACAUAGUAUUGACGAGAAGGGUGACAGAGAG [Anxeenerce] | 664 | 404 | – | –
UUUACAUGAGGAUCACCCAUGUAUGUCACCCAUGUGUGUAAUCAGGAUAUGAAAUAAAUAAUAAAUUAGAAGGGAUAACAUGAG [Attempt 1] | 72.9 | 60.3 | – | –
UUUACAUGAGGAUCACCCAUGUUUAGAAAGUUAAUUAUAAGUGAGGAUAUAUAAUUUAUAAAAUAGUAGAAGGCACUGGGUAUU [JR_SSNG3_Sub079] | 27.2 | 32 | – | –
